# Assay results published in paper PMC11821514 (Nature Cell Biology, 2025).
# T1: StrepII–GFP–Atg11 (budding yeast, UniProt Q12527 1-1178)
# T1 construct: Atg11, budding yeast; the ATG11 ORF was subcloned with an N-terminal StrepII–GFP tag into a pLIB vector; Used as preformed condensates (20 min at room temperature in 20 mM HEPES pH 7.5, 150 mM NaCl, 5 mM DTT); also called GFP–Atg11 condensates; GFP–Atg11 droplets; source: Sf9 insect cells, baculovirus, purified (Strep-TactinXT); not shown: GFP, N-terminal, kept
# T1 sequence (looked up): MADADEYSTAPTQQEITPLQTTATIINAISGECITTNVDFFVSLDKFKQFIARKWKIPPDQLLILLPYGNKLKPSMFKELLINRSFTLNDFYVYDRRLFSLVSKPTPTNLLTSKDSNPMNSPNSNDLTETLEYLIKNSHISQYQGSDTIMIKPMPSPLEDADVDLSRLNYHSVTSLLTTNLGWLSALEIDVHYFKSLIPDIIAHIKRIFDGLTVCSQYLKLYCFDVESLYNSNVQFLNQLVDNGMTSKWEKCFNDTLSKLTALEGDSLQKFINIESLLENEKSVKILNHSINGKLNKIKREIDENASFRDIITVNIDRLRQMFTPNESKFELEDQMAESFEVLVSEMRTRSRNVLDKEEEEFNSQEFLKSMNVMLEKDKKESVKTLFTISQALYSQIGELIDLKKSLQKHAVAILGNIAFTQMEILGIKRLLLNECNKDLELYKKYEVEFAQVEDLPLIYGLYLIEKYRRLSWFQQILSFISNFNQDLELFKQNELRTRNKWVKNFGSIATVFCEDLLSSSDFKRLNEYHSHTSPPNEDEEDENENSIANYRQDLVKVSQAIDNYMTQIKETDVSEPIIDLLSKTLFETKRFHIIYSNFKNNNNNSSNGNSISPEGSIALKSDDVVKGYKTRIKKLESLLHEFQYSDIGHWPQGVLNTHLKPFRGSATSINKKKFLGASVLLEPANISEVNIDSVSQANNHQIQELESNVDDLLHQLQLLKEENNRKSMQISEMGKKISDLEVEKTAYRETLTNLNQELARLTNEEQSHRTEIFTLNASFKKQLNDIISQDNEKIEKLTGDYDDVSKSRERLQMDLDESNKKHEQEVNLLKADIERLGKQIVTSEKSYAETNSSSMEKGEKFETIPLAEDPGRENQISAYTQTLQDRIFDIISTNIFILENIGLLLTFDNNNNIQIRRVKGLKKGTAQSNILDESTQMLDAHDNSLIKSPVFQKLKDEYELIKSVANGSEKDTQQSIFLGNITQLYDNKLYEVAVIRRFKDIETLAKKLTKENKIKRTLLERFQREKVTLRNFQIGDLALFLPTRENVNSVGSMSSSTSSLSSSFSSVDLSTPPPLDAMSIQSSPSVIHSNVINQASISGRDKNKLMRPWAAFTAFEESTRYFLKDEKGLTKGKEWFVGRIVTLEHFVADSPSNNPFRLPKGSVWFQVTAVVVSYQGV
# T2: GST–Atg11^685–1178 (budding yeast, UniProt Q12527 685-1178)
# T2 construct: also called C-terminal fragment of Atg11; not shown: GST, N-terminal, kept
# T2 sequence (looked up): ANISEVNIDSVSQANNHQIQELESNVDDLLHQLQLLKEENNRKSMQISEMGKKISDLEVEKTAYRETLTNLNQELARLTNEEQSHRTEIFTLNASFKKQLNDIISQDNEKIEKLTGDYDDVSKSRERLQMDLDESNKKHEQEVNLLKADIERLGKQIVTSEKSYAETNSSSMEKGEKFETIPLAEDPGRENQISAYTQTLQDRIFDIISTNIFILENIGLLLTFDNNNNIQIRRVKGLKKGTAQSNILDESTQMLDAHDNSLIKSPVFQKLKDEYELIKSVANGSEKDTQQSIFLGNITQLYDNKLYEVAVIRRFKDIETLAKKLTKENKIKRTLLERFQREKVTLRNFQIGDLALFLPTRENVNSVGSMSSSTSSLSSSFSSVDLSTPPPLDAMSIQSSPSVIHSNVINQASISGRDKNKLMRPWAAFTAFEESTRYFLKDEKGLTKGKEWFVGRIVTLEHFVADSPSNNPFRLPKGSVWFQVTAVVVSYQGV
# B1: GST–BFP–Vac8 (natural protein, budding yeast, UniProt P39968 1-578, looked up)
# chain: MGSCCSCLKDSSDEASVSPIADNEREAVTLLLGYLEDKDQLDFYSGGPLKALTTLVYSDNLNLQRSAALAFAEITEKYVRQVSREVLEPILILLQSQDPQIQVAACAALGNLAVNNENKLLIVEMGGLEPLINQMMGDNVEVQCNAVGCITNLATRDDNKHKIATSGALIPLTKLAKSKHIRVQRNATGALLNMTHSEENRKELVNAGAVPVLVSLLSSTDPDVQYYCTTALSNIAVDEANRKKLAQTEPRLVSKLVSLMDSPSSRVKCQATLALRNLASDTSYQLEIVRAGGLPHLVKLIQSDSIPLVLASVACIRNISIHPLNEGLIVDAGFLKPLVRLLDYKDSEEIQCHAVSTLRNLAASSEKNRKEFFESGAVEKCKELALDSPVSVQSEISACFAILALADVSKLDLLEANILDALIPMTFSQNQEVSGNAAAALANLCSRVNNYTKIIEAWDRPNEGIRGFLIRFLKSDYATFEHIALWTILQLLESHNDKVEDLVKNDDDIINGVRKMADVTFERLQRSGIDVKNPGSNNNPSSNDNNSNNNDTGSEHQPVEDASLELYNITQQILQFLH
# notes: Vac8, vacuolar membrane protein, budding yeast; The results text says GST–Vac8, the legend GST–BFP–Vac8; also called GST–Vac8; recombinant GST–Vac8; not shown: GST, N-terminal, kept; BFP, N-terminal, kept
# B2: Atg19^3D (natural protein, budding yeast, UniProt P35193 1-415, looked up)
# chain: MNNSKTNQQMNTSMGYPLTVYDECNKFQLIVPTLDANIMLWCIGQLSLLNDSNGCKHLFWQPNDKSNVRILLNNYDYGHLFKYLQCQRKCSVYIGEGTLKKYNLTISTSFDNFLDLTPSEEKESLCREDAHEDPVSPKAGSEEEISPNSTSNVVVSRECLDNFMKQLLKLEESLNKLELEQKVTNKEPNHRISGTIDIPEDRSELVNFFTELKTVKQLEDVFQRYHDYERLSQECDSKTEIASDHSKKETKIEVEPPNERSLQITMNQRDNSLYFQLFNNTNSVLAGNCKLKFTDAGDKPTTQIIDMGPHEIGIKEYKEYRYFPYALDLEAGSTIEIENQYGEVIFLGKYGSSPMINLRPPSRLSAESLQASQEPFYSFQIDTLPELDDDDIISTDISLSYDGDDNEKALTWEEL
# notes: Atg19, budding yeast, phospho-mimetic mutant S390D, S391D, S396D; also called purified recombinant Atg19^3D; source: E. coli BL21(DE3), expressed as GST–Atg19^3D from pGEX-4T.1, purified (GSH beads, thrombin elution, Superdex200); not shown: GST, N-terminal, cleaved
# B3: GST–mTagBFP–Atg19^3D (natural protein, budding yeast, UniProt P35193 1-415, looked up)
# chain: MNNSKTNQQMNTSMGYPLTVYDECNKFQLIVPTLDANIMLWCIGQLSLLNDSNGCKHLFWQPNDKSNVRILLNNYDYGHLFKYLQCQRKCSVYIGEGTLKKYNLTISTSFDNFLDLTPSEEKESLCREDAHEDPVSPKAGSEEEISPNSTSNVVVSRECLDNFMKQLLKLEESLNKLELEQKVTNKEPNHRISGTIDIPEDRSELVNFFTELKTVKQLEDVFQRYHDYERLSQECDSKTEIASDHSKKETKIEVEPPNERSLQITMNQRDNSLYFQLFNNTNSVLAGNCKLKFTDAGDKPTTQIIDMGPHEIGIKEYKEYRYFPYALDLEAGSTIEIENQYGEVIFLGKYGSSPMINLRPPSRLSAESLQASQEPFYSFQIDTLPELDDDDIISTDISLSYDGDDNEKALTWEEL
# notes: Atg19, budding yeast, phospho-mimetic mutant S390D, S391D, S396D; also called GST–BFP–Atg19^3D; Atg19^3D-decorated beads; not shown: GST, N-terminal, kept; mTagBFP, N-terminal, kept
# How the values were obtained:
# [1] = target: T1, StrepII–GFP–Atg11; assay: bead binding assay read by fluorescence microscopy; GST–BFP fusion on GSH beads incubated with preformed GFP–Atg11 condensates (purified by the methods and results, Sf9 lysate by the legends), 20 min at room temperature; imaged before and after eight washes with 20 mM HEPES pH 7.5, 150 mM NaCl, 5 mM DTT; conditions: both partners purified
# [2] = target: T2, GST–Atg11^685–1178; assay: pull-down; GST fusions on GSH beads incubated with purified recombinant Atg19^3D, 20 min at room temperature; six washes with GST-wash buffer containing 0.02% Tween-20; immunoblotting; conditions: both partners purified
Binder,binding result [1],binding result [2]
B1,binds,
B2,,binds
B3,binds,
